Our source for the ratio of dimers, ratio of trimers and stoichiometry N values is publication doi:10.1101/2025.08.07.668011.

Experiment in all cases: high-speed atomic force microscopy
Assay [1] deals with EML4-ALK v3 with the subdomain region (191-217 aa residues) deleted (ddv3) (human) (UniProt Q9UM73).
The target in assay [2] is EML4-ALK variant-3 (v3b, E6:A20) (human) (UniProt Q9UM73).
Assay [3] has as its target EML4-ALK variant-5 (v5a, E2:A20) (human) (UniProt Q9UM73).

“And” between values parts separate entries of the source, which are not always exact repeats. Equal values may be shown once.

Usually stoichiometry N stands for the number of molecules, sites or subunits per partner or assembly. On to “EML4-ALK v3 with the subdomain region (191-217 aa residues) deleted (ddv3) (from UniProt Q9UM73 1058-1620) (natural protein)”, for which, in assay [1], the ratio of dimers is 28.1%; the ratio of trimers came out at 7.3%; the stoichiometry N was 2 and 3.
Regarding “EML4-ALK variant-3 (v3b, E6:A20) (from UniProt Q9UM73 1058-1620) (natural protein)”, in assay [2], the ratio of dimers was found to be 38.5%; the ratio of trimers amounted to 9.3%; the stoichiometry N was 2 and 3.
As to “EML4-ALK variant-5 (v5a, E2:A20) (from UniProt Q9UM73 1058-1620) (natural protein)”, in assay [3], the ratio of dimers amounted to 29.8%; the ratio of trimers was found to be 10.2%; the stoichiometry N is 2 and 3.
